According to the RNAGym collection of RNA variant scans (doi:10.1073/pnas.2313332121):
Fewer inactive variants are shown than the library holds.

B1: TPR 5TU (parent)
chain: GGAUCUUCUCGAUCUAACAAAAAAGACAAAUCUGCCACAAAGCUUGAGAGCAUCUUCGGAUGCAGAGGCGGCAGCCUUCGGUGGCGCGAUAGCGCCAACGUUCUCAACUAUGACACGCAAAACGCGUGCUCCGUUGAAUGGAGUUUAUCAUG

Variants of: B1
Assay: polymerase ribozyme fitness, log enrichment relative to wild type (log ratio); higher = more active; in vitro selection for triplet polymerase activity
Method in brief: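 Mutant libraries were PCR-built and transcribed for each subunit of a heterodimeric triplet polymerase ribozyme and selected for one round in triplicate at −7 °C, frozen, before gel excision of extended constructs and streptavidin-bead capture. Input and output libraries were Illumina-sequenced, keeping genotypes with ≥10 input reads and ≥1 read per output. Fitness is a logarithmic ratio of genotype to wild-type enrichment, in base 2, using inverse-variance-weighted replicate averages.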

| Variant | polymerase ribozyme fitness (log ratio) |
| --- | --- |
| C93U A142U | -1.68 |
| C93U A142C | -0.842 |
| C93G C105A G136U | ≤ -4.2 |
| C93U C116U A122U | -1.45 |
| A91U A106U G117A G136U | ≤ -4.2 |
| A91G G143C | -3.43 |
| C93G A119C | -3.47 |
| U90G A97G C114U U139G | ≤ -4.2 |
| C93U U104G | -1.8 |
| C93G A147U | -1.74 |
| G92A U135A U145C | -3.89 |
| U90G G126U A147U | -3.95 |
| G92U U101A A119U G143U | -3.62 |
| C93A A120U | -3.4 |
| G92A A113C | -4.16 |
| A91U G94A G128U | ≤ -4.2 |
| C93A C103G | -3.88 |
| C93A A150G | -3.51 |
| G92U G112C | -2.95 |
| C93U C114U G141A | ≤ -4.2 |
| A91U G141A | -4.05 |
| C93U A115U A120G | -2.4 |
| G92C U135G A142U | -4.1 |
| C93A A121C U148C | -2.37 |

| Variant | polymerase ribozyme fitness (log ratio) |
| --- | --- |
| C93A A98U C125G C131U | -2.4 |
| A89U U127C G136C A137C | -4.13 |
| A91C C108G A120U | ≤ -4.2 |
| A91G U130G | ≤ -4.2 |
| A89U G141C | -0.255 |
| U90C G92A C123A G126A A147C | ≤ -4.2 |
| C93A A107U G126C A150G | ≤ -4.2 |
| G92C C105U | -0.217 |
| G92C C105G | -2.39 |
| G92U C93A G133U G140A | ≤ -4.2 |
| A91C G152U | ≤ -4.2 |
| A91U G92U C132A | ≤ -4.2 |
| C93U G117C C125A | -0.271 |
| G92U C95U A137U | -4.11 |
| G92A C103U | -2.02 |
| C93A A106G | -1.9 |
| C93A U101G U139C G141C | -3.88 |
| G92U U101G | 0.0893 |
| A91C C125A U135C | ≤ -4.2 |
| C93A U146G | -3.27 |
| C93A U146C | -2.18 |
| C93G A97U | -3.39 |
| U90G | ≤ -4.2 |
| U90A | -4.07 |

| Variant | polymerase ribozyme fitness (log ratio) |
| --- | --- |
| U90C | -2.87 |
| A91G A98U | -3.95 |
| G92A A106C U111G G136A | ≤ -4.2 |
| G92C C103A | -3.4 |
| G92C A115U | -1.86 |
| C93U G140U | -3.59 |
| G92A C116G C123G | -2.92 |
| G92U C116U | 0.0946 |
| A91G G126A G141A | -3.67 |
| A91U A147G | ≤ -4.2 |
| C93G A115G C131U | -3.48 |
| G92A C95A C125G | -3.82 |
| C93U C95U U102A A106G | -2.87 |
| A91U A115U C118A C131G A138G | ≤ -4.2 |
| C93A A110U | -3.99 |
| C93U A119G G143U U145G | -3.92 |
| C93U U144C | -1.07 |
| G92A | -2.51 |
| G92C | -0.459 |
| G92U | -0.671 |
| A91G U139G | -3.56 |
| C93G C108G | -3.9 |
| C93G C108U | -3.94 |
| C93A U127A G133U G140U | ≤ -4.2 |

| Variant | polymerase ribozyme fitness (log ratio) |
| --- | --- |
| C93U U102G G117U U135A | ≤ -4.2 |
| G92A A115C | -3.48 |
| C93U C131A | -2.97 |
| G92U A113C | -2.78 |
| A91C U109G G140U | ≤ -4.2 |
| C93G C108U C116G | ≤ -4.2 |
| C93U U134A | -4.01 |
| C93U A97C G140A | ≤ -4.2 |
| G92U U148A | -2.71 |
| C93A C105U | -2.67 |
| C93U A97U C116A G133A | ≤ -4.2 |
| A91G G94A | -3.47 |
| A91C A142C | ≤ -4.2 |
| A91U U145A | -4 |
| G92U U104G | -0.858 |
| C93A G126A A137G | -2.09 |
| G92U C125U | -1.4 |
| A89U G94C A98G A150G | -2.68 |
| A91G C116G | -1.65 |
| G92A U148C | -4.02 |
| C93U A97U C125A | -2.13 |
| A91G C118U A121U A122U G124A | -3.56 |
| A91U C95G C116A G143U A147C | ≤ -4.2 |
| C93A G140A | -4.11 |

| Variant | polymerase ribozyme fitness (log ratio) |
| --- | --- |
| G92U U145A | 0.602 |
| C93A C132A | ≤ -4.2 |
| G92C A98G A115U | -2.44 |
| A91G C96U A106G | -2.5 |
| A91C C96A G126A | ≤ -4.2 |
| A91U U109G G141U | ≤ -4.2 |
| C93G C149U | -4.08 |
| A89U G92C G94U G141A | -3.94 |
| U90A A91C U102G U151G | ≤ -4.2 |
| U90A G92C A142G | ≤ -4.2 |
| U90C C99G A138G | ≤ -4.2 |
| A91U G140U | ≤ -4.2 |
| G92C G141A | -0.778 |
| C93A G94A C123U C149U | ≤ -4.2 |
| C93G C123U G141U | -2.27 |
| G92U U146A | -0.393 |
| U90G G124C | ≤ -4.2 |
| C93A C116G A142G | -3.07 |
| G92C U134G | -1.68 |
| G92A G136C | -3.83 |
| U90A C125G A147C U148C | -3.99 |
| A89U U109G | -0.917 |
| C93G A97G G140C A147U C149G | ≤ -4.2 |
| C93U C96A | -1.65 |

| Variant | polymerase ribozyme fitness (log ratio) |
| --- | --- |
| C93U A106C | -1.75 |
| G92U A106G | -0.318 |
| G92U A106C | -0.0112 |
| C93A G136A | -1.14 |
| C93A G136U | -4.17 |
| A91C A97G U109C A142C | ≤ -4.2 |
| U90C U104A | -4.11 |
| A91C C95U C103G C116G | ≤ -4.2 |
| G92U U104G C132U | -2.5 |
| U90A G94U C95U C116G C118G C123G | ≤ -4.2 |
| G92U A137G U145C | -1.11 |
| A91U C103U U145A | ≤ -4.2 |
| G92C G124U G152U | -3.69 |
| G92U A115C A119U G140C | ≤ -4.2 |
| G92C U101G G117C | -1.52 |
| U90C A147U | -3.58 |
| G92C A142U | -2.07 |
| C93A A113U | -4.07 |
| A89U U102G A122C | -3.7 |
| C93A G100C C118G A138G | ≤ -4.2 |
| C93A G124C U127C G133C U135A U148G | ≤ -4.2 |
| U90C U127C | ≤ -4.2 |
| C93U G143C | -3.12 |
| G92A G124C | -3.03 |

| Variant | polymerase ribozyme fitness (log ratio) |
| --- | --- |
| C93G C116U | -3.07 |
| C93G A98C | -2.81 |
| C93G A98U | -2.82 |
| C93A C96G A97C U148A | ≤ -4.2 |
| C93A A138G G143C | -3.66 |
| G92A U104A A106C C108A | ≤ -4.2 |
| G92A C149U | -3.4 |
| C93A A107U A110G C114U U127G | ≤ -4.2 |
| A91G G140U | -4.19 |
| C93U A98G | -1.59 |
| U90A C99U C103G G140A | ≤ -4.2 |
| C93U A107U | -4.04 |
| G92A A107G | ≤ -4.2 |
| A91G A120G | -2.98 |
| C93U C95U C131U | -0.998 |
| A89U U148G | -3.92 |
| G92A C118G | -3.69 |
| C93U C103A C105U A120G U134C | -3.94 |
| C93G G140C | ≤ -4.2 |
| C93U C125G | -1.79 |
| C93U C125A | -2.69 |
| U90G G94U A106U | ≤ -4.2 |
| C93U U101A | -2.19 |
